Tests used:
[1] = substrate: c1ccc2[nH]ccc2c1; assay: indigo formation by LC-MS; format: biochemical, Methylophaga thalassica; conditions: pH 7.5, 30 °C, 250 μM NADH, 0.6% glucose with GDH recycling, unit μm [sic], meant μM, table title says NADH oxidation, methods say indigo/Tyrian purple formation
Excerpt: indigo formation by LC-MS on MaFMO

[2] = substrate: Brc1ccc2cc[nH]c2c1; assay: Tyrian purple formation by LC-MS; format: biochemical, Methylophaga thalassica; conditions: pH 7.5, 30 °C, 250 μM NADH, 0.6% glucose with GDH recycling, unit μm [sic], meant μM, table title says NADH oxidation, methods say indigo/Tyrian purple formation
Excerpt: Tyrian purple formation by LC-MS on MaFMO

B1: MaFMO (Methylophaga thalassica) (protein)
chain: MATRIAILGAGPSGMAQLRAFQSAQEKGAEIPELVCFEKQADWGGQWNYTWRTGLDENGEPVHSSMYRYLWSNGPKECLEFADYTFDEHFGKPIASYPPREVLWDYIKGRVEKAGVRKYIRFNTAVRHVEFNEDSQTFTVTVQDHTTDTIYSEEFDYVVCCTGHFSTPYVPEFEGFEKFGGRILHAHDFRDALEFKDKTVLLVGSSYSAEDIGSQCYKYGAKKLISCYRTAPMGYKWPENWDERPNLVRVDTENAYFADGSSEKVDAIILCTGYIHHFPFLNDDLRLVTNNRLWPLNLYKGVVWEDNPKFFYIGMQDQWYSFNMFDAQAWYARDVIMGRLPLPSKEEMKADSMAWREKELTLVTAEEMYTYQGDYIQNLIDMTDYPSFDIPATNKTFLEWKHHKKENIMTFRDHSYRSLMTGTMAPKHHTPWIDALDDSLEAYLSDKSEIPVAKEA
notes: synthesized gene, His-tag, E. coli BL21(DE3), Ni-NTA; primers give start MATRIAI, end VAKEA
- Km [1]: 242.2 µM
- kcat [1]: 0.000246 s⁻¹
- kcat/Km [1]: 1 M⁻¹ s⁻¹
- Km [2]: 303.65 µM
- kcat [2]: 0.000521 s⁻¹
- kcat/Km [2]: 1.67 M⁻¹ s⁻¹
